Measurements taken from article PMC6494836, “Mechanism-based tuning of insect 3,4-dihydroxyphenylacetaldehyde synthase for synthetic bioproduction of benzylisoquinoline alkaloids” (Nature Communications, 2019).

Tested on: N[C@@H](Cc1ccc(O)c(O)c1)C(=O)O
Assay: fluorometric H2O2 production assay (peroxidase-coupled)
Format: biochemical, Bombyx mori
Details: O2 co-substrate; PBS; PLP cofactor; aldehyde synthase (H2O2-producing) activity; parentheses are 95% confidence interval
Text: fluorometric H2O2 production assay (peroxidase-coupled) on B. mori DHPAAS

Substance | Km | kcat
B. mori DHPAAS (Bombyx mori; F79Y/Y80F) | 62.3 (49.5–78.5) µM | 4.65 (4.30–5.03) min^−1
B. mori DHPAAS (Bombyx mori) | 41.7 (36.6–47.3) µM | 6.51 (6.27–6.76) min^−1
B. mori DHPAAS (Bombyx mori; F79Y/N192H/Y80F) | 27.6 (17.1–42.8) µM | 0.97 (0.87–1.09) min^−1
B. mori DHPAAS (Bombyx mori; N192H) | 36.5 (32.8–40.5) µM | 1.40 (1.35–1.44) min^−1
